{
  "source": "the nanobody polyreactivity screen of Harvey et al. (2022)",
  "data": [
    {"experiment": "yeast display, Sf9 membrane polyspecificity reagent, FACS + sequencing; frameworks hold sequencing errors", "procedure,_shortened": "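Genes from sorted yeast were amplified by colony PCR, read by MiSeq 2 × 250 sequencing and filtered on CDR length. These cells carried a synthetic nanobody library in Saccharomyces cerevisiae BJ5465 and were sorted by FACS into low and high (top ~1%) gates on anti-HA and streptavidin fluorescence. Polyreactivity is labelled according to the gate of origin.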", "values": [
      {"sequence": "QVQLVESGGGLVQAGGSLRLSCAASGRTLSAYAMGWYRQAPGKERELVAALRWRGGSTVYAASVKGRFTISRDNAKNPVYLQMHSLKPADTAVYYCNALPGNRRTVYYWGQGTQVTVSS", "polyreactivity (PSR sort gate)": "high polyreactivity"},
      {"sequence": "QVQLVESGGGLVQAGGSLRLSCAASGRTLSFYTMGWYRQAPGKERELVAAISSRTGSTYYADSVKGRFTISRDNAKNTVYLQMNRLKPEDTAVYYCAAASRAFAGSGHYYWGQGTQVTVSS", "polyreactivity (PSR sort gate)": "high polyreactivity"},
      {"sequence": "QVQLVESGGGLVQAGGSLRLSCAASGRTLSKNAMGWYRQAPGKERELVATISSVGRTNYADSVKGRFTISRDNAKNTVYLQMNSLKPVDTAVYYCAARRFRGSYYWGLGTQVTVSS", "polyreactivity (PSR sort gate)": "high polyreactivity"},
      {"sequence": "QVQLVESGGGLVQAGGSLRLSCAASGRTLSRYTMGWYRQAPGKERELVAAISTSGSTYYADSVKGRFTISRDNAKNTVYLQMNSLKPEDTAVYYCYAVRRYLQYATGYDYWGQGTQVTVSS", "polyreactivity (PSR sort gate)": "high polyreactivity"},
      {"sequence": "QVQLVESGGGLVQAGGSLRLSCAASGRTLSWYAMGWYRQAPGKERELVAAISYRGVSTYYADSVKGRFTISRDNAKNTVYLQMNSLNPEDTAVYYCAAESWYYSYIVEMEYWGQGTQVTVSS", "polyreactivity (PSR sort gate)": "high polyreactivity"},
      {"sequence": "QVQLVESGGGLVQAGGSLRLSCAASGRTLSWYAMGWYRQAPGKERELVASISSGGGTYYADSVKGRFTISRDNAKNTVYLQMNSLKPEDTAVYYCAARYHYAKSPYRYYYWGQGTQVTVSS", "polyreactivity (PSR sort gate)": "high polyreactivity"},
      {"sequence": "QVQLVESGGGLVQAGGSLRLSCAASGRTLTFYAMGWYRQAPVKERELVAAISRRAGSTYYADSVKGRFTISRDTAKNTVYLQMNSLKPEDTAVYYCAREPYSASHRYCLYRGYDYWGQGTQVTVSS", "polyreactivity (PSR sort gate)": "low polyreactivity"},
      {"sequence": "QVQLVESGGGLVQAGGSLRLSCAASGRTLTGYDMGWYRQAPGKERELVAAITWSGGSTFYADSVKGRFTMSRYNAKNTVYLQMNSLKPEDTAVYYCNVTDVTEPSLIYGYYWGQGTQVTVSS", "polyreactivity (PSR sort gate)": "low polyreactivity"},
      {"sequence": "QVQLVESGGGLVQAGGSLRLSCAASGRTLTIYAMGWYRPAPGKERELVAAINWSGGGTYYADSVKGRFTISRDNAKNTVYLQMNRLKPEDTAVYYCAAGRSFRGSYWYEYWGQGTQVTVSS", "polyreactivity (PSR sort gate)": "high polyreactivity"},
      {"sequence": "QVQLVESGGGLVQAGGSLRLSCAASGRTLTQNAMGWYRQAPGKERELVATISWTAGSTYYADSVKGRFTISRDNAKNTVYLQMNSLKPEDTAVYYCAAVVFYSIYDYWGQGTQVTVSS", "polyreactivity (PSR sort gate)": "low polyreactivity"},
      {"sequence": "QVQLVESGGGLVQAGGSLRLSCAASGRTLVLNMGWYRQAPGKERELVATINSGGSTYYADSVKGRFTISRDNAKNTVYLQMNSLKPEDTAVYYCAVLSSDGKFDYWGQGTQVTVSS", "polyreactivity (PSR sort gate)": "low polyreactivity"},
      {"sequence": "QVQLVESGGGLVQAGGSLRLSCAASGRTLVLNMGWYRQAPGKQRELVATINSGGSTYYADSVKGRFTISRANAKNTVYLQMNSLKPEDSAVYYCAVLSSDGKFDYWGQGSQVTVSS", "polyreactivity (PSR sort gate)": "low polyreactivity"},
      {"sequence": "QVQLVESGGGLVQAGGSLRLSCAASGRTLVPYAMGWYRQAPGKERELVAAINSSGGSTYYADSVKGRFTISRDNEKNTVYLQMNSLKPEDTAVYYCNVQSVHFRLWKDNYWGQGTQVTVSS", "polyreactivity (PSR sort gate)": "high polyreactivity"},
      {"sequence": "QVQLVESGGGLVQAGGSLRLSCAASGRTLVRNAMGWYTQAPGKEREFVAGITESGDRTSYADSVKGRFTISRDNAKNTVYLQMNSLKPEDTAVYFCAASRPWDFYSFGFDYWGQGTQVTVSS", "polyreactivity (PSR sort gate)": "high polyreactivity"},
      {"sequence": "QVQLVESGGGLVQAGGSLRLSCAASGRTLVWYTMGWYRQAPGKEREFVAVITTGSGSTYYADSVKGRFTISRDNAKNTVYLQMNSLKPEDTAVYYCNAGYGGYSYHYPPYEYWGQGTQVTVSS", "polyreactivity (PSR sort gate)": "low polyreactivity"},
      {"sequence": "QVQLVESGGGLVQAGGSLRLSCAASGRTLVYAMGWYRQAPGKERELVATIYRGGNTYYADSVKGRFTISRDNAKNTVYLQMNSLKPEDTAVYYCNKPTYQWGQGTQVTVSS", "polyreactivity (PSR sort gate)": "high polyreactivity"},
      {"sequence": "QVQLVESGGGLVQAGGSLRLSCAASGRTLVYNAMGWYRQAPGKERELVAAITTDGGDTYYADSVKGRFTISRDNAKNTVYLQMNSLKPEDTAVYYCAADYVALYYWYDYWGQGTQVTVSS", "polyreactivity (PSR sort gate)": "low polyreactivity"},
      {"sequence": "QVQLVESGGGLVQAGGSLRLSCAASGRTLWANAMGWYRQAPGKERELVAAITYSGGSTHYADSVKGRFTISRDNAKNTVYLQMNSLKPEDTAVYYCNADYDSYYTYLYDYWGQGTQVTVSS", "polyreactivity (PSR sort gate)": "low polyreactivity"},
      {"sequence": "QVQLVESGGGLVQAGGSLRLSCAASGRTLWLYTMGWYRQATGKERELVARSRSGGSTYYADSVKGRFTISRDNAKNTVYLQMNSLKPEDTAVYYCAAFPYWIHYEHYYWGQGTQVTVSS", "polyreactivity (PSR sort gate)": "high polyreactivity"},
      {"sequence": "QVQLVESGGGLVQAGGSLRLSCAASGRTLWYYTMGWYRQAPGKERELVADITRGTSTNYADSVKGRFTISRDNAKNSVYLQMNSLKPEDTAVYYCNRAHGRSRYSRDYESWGQGTQVTVSS", "polyreactivity (PSR sort gate)": "low polyreactivity"},
      {"sequence": "QVQLVESGGGLVQAGGSLRLSCAASGRTLWYYTMGWYRQAPGKERELVAVISTSGGRTYYADSVKGRFTISRDNAKNTVYLQMNSLKPEDTAVYYCAADGFQYTLGNYYWGQGTQVTVSS", "polyreactivity (PSR sort gate)": "high polyreactivity"},
      {"sequence": "QVQLVESGGGLVQAGGSLRLSCAASGRTLYGNTMGWYRQAPGKERELVAAITNRGGSTTYADSVKGRFTISRDNAKNTVYLQMNSLKPEDTAVYYCNKDVTPLHYDSWGQGTQVTVSS", "polyreactivity (PSR sort gate)": "high polyreactivity"},
      {"sequence": "QVQLVESGGGLVQAGGSLRLSCAASGRTLYGYAMGWYRQAPGKEREFVAAISRSGGRTYYADSVKGRFTISRDNAKNTVYLQMNSLKPEDTAVYYCAARQYQAKQPYGYYPGYGYWGQGTQVTVSS", "polyreactivity (PSR sort gate)": "high polyreactivity"},
      {"sequence": "QVQLVESGGGLVQAGGSLRLSCAASGRTLYNYAKGWYRQAPGKERELDASITWSGGSTYYADSVKGRFTISRDYANNTVYLQMNSLKPEDTAVYYCAAESSPGTFVRYGYRRYYYWGQGTQVTVSS", "polyreactivity (PSR sort gate)": "low polyreactivity"},
      {"sequence": "QVQLVESGGGLVQAGGSLRLSCAASGRTLYPYAMGWYRQAPGKERELVATITWGDGSTSYADSVKGRFTISRDNAKNTVYLQMNSLKPEDTAVYYCNVRISNTSYRYPTFDYWGQGTQVTVSS", "polyreactivity (PSR sort gate)": "low polyreactivity"},
      {"sequence": "QVQLVESGGGLVQAGGSLRLSCAASGRTLYRNAMGWYRQAPGKERELVAAIKMRGGSTYADSVKGRFTISRDNAKNTVYLQMNSLKPEDTAVYYCAAASRSPYYYWGQGTQVTVSS", "polyreactivity (PSR sort gate)": "high polyreactivity"},
      {"sequence": "QVQLVESGGGLVQAGGSLRLSCAASGRTLYRYAMGWYRQAPGKERELVAAIRSGGRTNYADSVKGRFTISRDNAKNTVYLQMNSLKPEDTAVYYCAARTLRYPSTYDYWGQGTQVTVSS", "polyreactivity (PSR sort gate)": "high polyreactivity"},
      {"sequence": "QVQLVESGGGLVQAGGSLRLSCAASGRTLYSYAMGWYRQAPGKERELVAAITSGGRTYYADSVKGRFTISRDNAKNTVYLQMNRLTPEDTAVYYCNDRRTFPRYDRNYESWGQGTQVTVSS", "polyreactivity (PSR sort gate)": "high polyreactivity"},
      {"sequence": "QVQLVESGGGLVQAGGSLRLSCAASGRTLYVYTMGWYRQAPGKERELVASISSGVGTNYADSVKGRFTISRDNAKNTVYLQMNSLKPEDTAVYYCAARFRYYRHYYWGQGTQVTVSS", "polyreactivity (PSR sort gate)": "high polyreactivity"},
      {"sequence": "QVQLVESGGGLVQAGGSLRLSCAASGRTLYYYGMGWYRQAPGKERELVASITNGGNTNYADSVKGRFTISRDNAKNTVYLQMNSLKPEDTAVYYCAKDVPYWRPVVRYDYWGQGTQVTVSS", "polyreactivity (PSR sort gate)": "low polyreactivity"},
      {"sequence": "QVQLVESGGGLVQAGGSLRLSCAASGRTSDVYAMGWYRQAPGKERALVAAISSGGSTSYADSVKGRFTISRDNAKNTVNLQMNSLKPEDTAVYYCAADSSGQSRFGYWGQGTQVTVSS", "polyreactivity (PSR sort gate)": "low polyreactivity"},
      {"sequence": "QVQLVESGGGLVQAGGSLRLSCAASGRTSFGYAMGWYRQAPGKERELVAVISIGGTTYYADSVKGRFTISRDNAKNTVYLQMNSLKPEDTAVYYCAKDAETYYWGSYKSLYDYWGQGTQVTVSS", "polyreactivity (PSR sort gate)": "low polyreactivity"},
      {"sequence": "QVQLVESGGGLVQAGGSLRLSCAASGRTSFNYTMGWYRQAPGKERELVAAITSGGDTYYADSVKGRFTISRDNAKNTVYLQMNSLKPEDTAVYYCNADPDFPSKFDDPYSYDYWGQGTQVNVSS", "polyreactivity (PSR sort gate)": "low polyreactivity"},
      {"sequence": "QVQLVESGGGLVQAGGSLRLSCAASGRTSGFNTMGWYRQAPGKERELVAAISFSGGSTYYADSVKGRFTISRDNAKNTVYLQMNSLKPEDTAVYYCNALYRYLYRSGDYWGLGTQVTVSS", "polyreactivity (PSR sort gate)": "low polyreactivity"},
      {"sequence": "QVQLVESGGGLVQAGGSLRLSCAASGRTSGFNTMGWYRQAPGKERELVAAISFSGGSTYYADSVKGRFTISRDNAKNTVYLQMNSLKPEDTAVYYCNALYRYLYRSGDYWGQGTQVTVSS", "polyreactivity (PSR sort gate)": "low polyreactivity"},
      {"sequence": "QVQLVESGGGLVQAGGSLRLSCAASGRTSGFNTMGWYRQAPGKERELVAAISFSGGSTYYADSVKGRFTISRDYSKNTVYLQMNSLKPEDTAVYYCTALYRYLYRSGDYWGQGTQVTVSS", "polyreactivity (PSR sort gate)": "low polyreactivity"},
      {"sequence": "QVQLVESGGGLVQAGGSLRLSCAASGRTSGVYSMGWYRQAPGKERELVAAISRSGDSTYYADSVKGRFTISRDNAKNTVYLQMNSLKPEDTAVYYCATTFKRSMYWGQGTQVTVSS", "polyreactivity (PSR sort gate)": "high polyreactivity"},
      {"sequence": "QVQLVESGGGLVQAGGSLRLSCAASGRTSIGYARGWYRQAPGKERELVAVISIGGTTYYADSVKGRFTISRDNAKNTVYLQMNSLKPEDTAVYYCAADSFPAYLGFVGFDYWGQGTQVTVSS", "polyreactivity (PSR sort gate)": "low polyreactivity"},
      {"sequence": "QVQLVESGGGLVQAGGSLRLSCAASGRTSILYAMGWYRQAPGKERELVATIYSGGRTYYADSVKGRFTISRDNAKNTVYLQMNSLKPEDTAVYYCAARPNATPRGQTKHYYWGQGTQVTVSS", "polyreactivity (PSR sort gate)": "high polyreactivity"},
      {"sequence": "QVQLVESGGGLVQAGGSLRLSCAASGRTSKGNTMGWYRQAPGKEREFVATISRSGGSTYYADSVKGRFTISRDNAKNTVYLQMNSLKPEDTAVYYCAARISRQRSYSRDYWGQGTQVTVSS", "polyreactivity (PSR sort gate)": "high polyreactivity"},
      {"sequence": "QVQLVESGGGLVQAGGSLRLSCAASGRTSLAYAMGWYRQAPGKERELVAAINTRGGSTYYADSVKGRFTISRDNAKNTVFLQINSLKPEDTAVYYCAKGPRLYFTRDKAHWKYDYWGQGTQVTVSS", "polyreactivity (PSR sort gate)": "low polyreactivity"}
    ]}
  ]
}
